Assay results taken from PMC5464678 (The Journal of Physical Chemistry Letters, 2017).

Target: T1, Cnu (UniProt P64467 1-71)
T1 sequence (looked up): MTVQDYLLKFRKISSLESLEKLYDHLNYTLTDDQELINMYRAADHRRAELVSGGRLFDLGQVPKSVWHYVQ
Assay: fluorescence polarisation; tryptophan fluorescence anisotropy of Cnu, titrated with H-NS(1-59) at select temperatures (278 to 310 K); apparent dissociation constants from fits assuming a 1:1 binding equilibrium
Details: both partners purified

fold decrease of binding affinity, 310 K against 278 K: ~5 fold
B1: H-NS_(1–59) (domain or fragment, UniProt P0ACF8 1-59, looked up)
chain: MSEALKILNNIRTLRAQARECTLETLEEMLEKLEVVVNERREEESAAAAEVEERTRKLQ
